Consider four molecules from PMC12139101, “DNA G-quadruplex structures act as functional elements in α- and β-globin enhancers”.

Series [1] deals with T1, POLR2G (human, UniProt P62487 1-172). Briefly: ELISA; no detectable binding, up to 200 nM; 100 mM K+; ELISA: oligos folded in Tris-HCl pH 7.4, 100 mM KCl; ELISA buffer 100 mM KCl, 50 mM KH2PO4 pH 7.4, 3% BSA block, 1 h (room temperature stated for coating and bl).
Series [2] addresses T1, POLR2G. Briefly: ELISA; apparent Kd; 100 mM K+; ELISA: oligos folded in Tris-HCl pH 7.4, 100 mM KCl; ELISA buffer 100 mM KCl, 50 mM KH2PO4 pH 7.4, 3% BSA block, 1 h (room temperature stated for coating and bl).

B1: HS2_G4_bMut (ssDNA)
DNA: CCATAATGCCAAGCTTGAGCACTGATTCCGACACTAGACCT
Turning to B1, the binding result with POLR2G [1] was “no binding”.

B2: HS2_G4_WT (bWT) (structured_DNA)
DNA: CCAGAAGCGGGGGTGGGGCACTGACCCCGACAGGGGCCT
Turning to B2, the Kd with POLR2G [2] stood at 48.3 nM.

B3: HS-40_G4_aMut (ssDNA)
DNA: TGTGTGTGGATGTGTGACAAGTGAAATGTGTGA
For B3, in the series with POLR2G [1], the binding result was “no binding”.

B4: HS-40_G4_aWT (structured_DNA)
DNA: TGGGGGTGGAGGTGGGACAAGGGAAAGGGGTGA
B4: the Kd with POLR2G [2] was found to be 52.8 nM.
